Results from the supplement of paper PMC11865577.

Tests used:
Test in all cases: pull-down binding Z-score (relative to library population); higher = stronger binding
[1] = tested on: G-clamp-N3 (biotin conjugate); settings: RNA library: Library-1 (pre-miRNA loops + repeats)
In short: (§1)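 Biotin-conjugated small molecule (100 pmol) on streptavidin beads was incubated with 1 μg of heat-folded Cy5- or Cy3-end-labelled RNA library in phosphate/NaCl/KCl buffer at 25 °C for 60 min. Following three washes, RNA was eluted with hot SDS and hybridised at 55.5 °C for 20 h to a DNA barcode microarray. The binding value is a Z-score computed from the library mean and standard deviation, after subtraction of beads without compound and averaging of barcoded replicate probes with the highest and lowest excluded.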

[2] = tested on: TO-3-N3 (biotin conjugate); settings: RNA library: Library-2
In short: as §1

[3] = tested on: TO-3-N3-2 (biotin conjugate); settings: RNA library: Library-2
In short: as §1

TO-N3 (biotin conjugate) = settings: RNA library: Library-2
In short: as §1

[4] = tested on: TO-N3-2 (biotin conjugate); settings: RNA library: Library-2
In short: as §1

Row | Sequence | pull-down binding Z-score [1] | pull-down binding Z-score [2] | pull-down binding Z-score [3] | pull-down binding Z-score (TO-N3 (biotin conjugate)) | pull-down binding Z-score [4]
1 | GUGUAGGGGUGGCUACAC [hsa-mir-4717] | 0.957 | 0.385 | 0.281 | 0.346 | 0.235
2 | GGGCUGCCCGGGCCGGUCGACCAGCGCGCCGUAGCUCC [hsa-mir-6724-2_6724-3_6724-1_6724-4] | 0.0384 | 0.0652 | -0.0157 | 1.03 | 2.24
3 | CAGAGUGUGCAUGGCAGGCU [hsa-mir-7156] | -0.349 | 0.383 | 0.342 | 0.869 | 0.86
4 | GGCUGGACAGGAGAGGGCUCACCCAGG [hsa-mir-6775] | 0.487 | 1.16 | 0.591 | 1.78 | 1.77
5 | AGCAGUACCAGAUGGUUCUGUGG [hsa-mir-3198-2] | -1.54 | -0.0816 | -0.262 | -0.0604 | -0.167
6 | GUUCAGAGUCUGUUUUUGUCUAGC [hsa-mir-29c] | -0.124 | -0.508 | 0.0089 | -0.313 | -0.0332
7 | AGCUGUGUUUUCUGACUCAGUCAUAAU [hsa-mir-365b] | -0.674 | -0.26 | -0.263 | -0.26 | -0.505
8 | UUGCUUAAG [hsa-mir-924] | -0.513 | 0.586 | -0.269 | 0.3 | -0.696
9 | UGAGACCUGGUGCAGAACGGGAAGGCGA [hsa-mir-551b] | 1.4 | 0.308 | 0.479 | 1.23 | 1.76
10 | CUUUCCUCAGCUGAUUUCUUUCUGGGGAGAG [hsa-mir-5186] | -0.72 | -0.144 | -0.279 | -0.52 | -1.08
11 | CUGGGUGGGACACUCAG [hsa-mir-4692] | -0.443 | 1.24 | 0.311 | 0.91 | 0.0278
12 | GGAAACUGAGACUUUGUAACUAUGUCUCAGUCUCA [hsa-mir-452] | -0.74 | -0.179 | -0.296 | -0.297 | -0.427
13 | AGAAGCUAAAGUGUAGAUCAAACGCAUAAUGGCUGA [hsa-mir-4500] | -0.364 | 0.197 | 0.195 | 0.65 | 0.233
14 | ACUACUGUGCUCUGAGAAGCAGU [hsa-mir-301b] | 1.42 | 0.599 | -0.255 | 0.643 | 0.325
15 | GCGUCGCUUCUCCCUAAUGUUGCC [hsa-mir-6781] | -0.106 | -0.385 | 0.089 | -0.068 | 0.502
16 | CUUGGCUUCAAUUUACUCCCAGG [hsa-mir-4446] | -1.06 | 0.257 | -0.0843 | 0.101 | 0.323
17 | AGAGGCUGUGGGCAGGGGGAGAUGUGAAGGAAAGAACUAGGACCCAUUCAUCCACU [hsa-mir-6807] | 0.739 | 2.51 | 2.57 | 2.97 | 2.79
18 | GCCACAUGAGCUGGGCCUCGUGGGC [hsa-mir-770] | -0.657 | 0.237 | -0.342 | 0.189 | 0.565
19 | GCCCGCUGUGUUCACUCGGGC [hsa-mir-602] | 0.773 | -0.169 | -0.556 | -0.398 | -0.52

Row | Sequence | pull-down binding Z-score [1] | pull-down binding Z-score [2] | pull-down binding Z-score [3] | pull-down binding Z-score (TO-N3 (biotin conjugate)) | pull-down binding Z-score [4]
20 | UGCACCACUCUCCCUGUGAUGAGGUGAA [hsa-mir-4786] | -0.896 | -0.535 | -0.354 | -0.255 | 0.456
21 | GACGGCGCCCGCCCUGGCCCUGGC [hsa-mir-4745] | 0.486 | 0.678 | 0.0825 | 1.16 | 1.96
22 | AUGUCUCAGGUCCCCAGCUGAGUCAA [hsa-mir-6513] | -1.3 | 0.633 | 0.129 | 0.609 | 0.47
23 | UAAGUUGUGAUCAUACCA [hsa-mir-1273g] | -1.51 | -0.424 | -0.0944 | -0.24 | 0.165
24 | CAUUUCAGCGUAUAUAUGUAUAUGUGGCUGUG [hsa-mir-19b-2] | 2.71 | 1.07 | 0.559 | 1.11 | 0.0211
25 | UGAAUUGAAAUGCGUUACAUUCA [hsa-mir-95] | -0.13 | 0.0702 | -0.0666 | -0.0852 | 0.088
26 | GCUUUCUGUGGUCAGAAAGAAAAGCAAGU [hsa-mir-520f] | 1.15 | 0.636 | 0.704 | 0.758 | 0.76
27 | UGCAGAUGUGGACUGCUAAAUGCA [hsa-mir-1253] | -0.572 | -0.411 | -0.171 | -0.275 | 0.384
28 | GCCUGUGUAGACGGGGACCUGCCCUGCAUGGGCACCCCCUCACUGGC [hsa-mir-6762] | -0.617 | 0.332 | 0.322 | 0.173 | 0.347
29 | AUGCAUGGCUGGUGGCGGCGUGCAG [hsa-mir-6722] | 0.533 | 0.897 | 0.74 | 1.56 | 2.13
30 | CCCACCCUGAGUUUUGGUGGG [hsa-mir-6508] | -0.873 | -0.066 | -0.26 | -0.245 | -1.22
31 | UCAGGUGAAUGUGUCUGG [hsa-mir-3916] | -1.06 | -0.539 | -0.427 | -0.773 | -0.347
32 | CACGCCGCGCCGCCGGGUCCCUCCUCCCCGGAGAGGCUG [hsa-mir-4674] | 0.455 | 0.257 | -0.048 | 0.606 | 1.56
33 | GGUAAGGUCUUUCAGCC [hsa-mir-7150] | 0.213 | 0.648 | 0.105 | 0.622 | 0.413
34 | CCGUUUAAAAAGGCAUCUCCAAG [hsa-mir-608] | -1.45 | 0.0622 | 0.433 | 0.0887 | 0.0602
35 | UAGACAAUGGUUUCAUCAUUUCGUCUG [hsa-mir-4427] | -0.055 | -0.317 | -0.103 | -0.379 | -0.052
36 | GGUUCUGGGGUGUAGACGCUGCUGGCCAGCC [hsa-mir-4707] | 1.08 | 0.287 | 0.282 | 0.587 | 0.971
37 | UAGAUACUCAGGAGGGUGAGUAUCUA [hsa-mir-5689] | 1.64 | -0.511 | -0.33 | -0.797 | -0.726
